Results on seven sequences are retold here after the DeepSol protein solubility set.

The nature of this data set: soluble on expression in E. coli; label from the status in PepcDB or PDB records.
Regarding “SLHPDTILHNGRVTTLDRGNPNATAVAIKDGLFVEVGSDAEVMALAGSETKIIDLKGKRVLPGLIDNHTHVIRGGLNFNMELRWDGVRSLADAMYMLKRQVAITPAPQWVRVVGGFTEHQFVEKRLPTIEEINAVAPDTPVFLLHLYDRALLNGAALRAVGYTKDTPNPPGGEITRDANGNPTGLLLAKPNAGILYSTLAKGPKLPLDYQVNSTRHFMRELNRLGVTGVIDAGGGFQNYPDDYEVIQKLSDENQMTVRLAYNLFTQKPKQEKEDFLNWTSSVKYKQGNDYFRHNGAGEMLVFSAADFEDFRQPRPDMPPEMEGELEDVVRILAENRWPWRLHATYDETISRALDVFEKVNRDIPLEGLNWFFDHAETISDRSIDRIAALGGGIATQHRMAYQGEYFVERYGQGVAEATPPIARMLEKGVNVSAGTDATRVASYNPWVSLFWMVTGKTVGGMQLYPRANCLDRETALRMWTEKVTWFSNEEGKKGRIEKGQFADLVVPDKDYFSCAEDEISFLTSELTMVGGKIVYGAGDFRVLDESNIPPAMPDWSPVRTFGGYAAWGEPQGAGKNSLRRAAITSCGCASDCGVHGHDHAGAWTSKLPIADLKGFFGALGCSCWAV”, the “soluble on expression in E. coli” value is on record as “soluble”.
For the sequence “ILDTKPIPTIVDATTLGISGNTSGDYWLPTTMSLYQKELTDQIVSLHYSDILRYFETSHYKEDVILESMKTMCLNGSLVATHPYLLIDHYMPKSLITRDVPAHLAENSGKFSVLRDLINLVQEYETETAIVCRPGRTMDLLEALLLGNKVHIKRYDGHSIKSAAAANDFSCTVHLFSSEGINFTKYPIKSKARFDMLICLDTTVDTSQKDIQYLLQYKRERKGLERYAPIVRLVAINSIDHCRLFFGKKFDKNSREYLENVTAAMVILRDRLGTLPPDLRPIYSQKLHYLVEWLENPTVPWPLPDIYPLKQYTSMDVERSLLTEVHFK”, the “soluble on expression in E. coli” value is “soluble”.
With “VPMHPFVKALQEHFTAHQNPEKAEPMARYMKNHFLFLGIQTPERRQLLKDIIQIHTLPDQKDFQIIIRELWDLPEREFQAAALDIMQKYKKHINETHIPFLEELIVTKSWWDSVDSIVPTFLGDIFLKHPELISAYIPKWIASDNIWLQRAAILFQLKYKQKMDEELLFWIIGQLHSSKEFFIQKAIGWVLREYAKTNPDVVWEYVQNNELAPLSKREAIKHIKQNYGINNEKIGETLS”, the “soluble on expression in E. coli” value was “soluble”.
For the sequence “MEEVFTAALESKIFRKRWVLLPDYVPDVLPHREAELRRLAEVLAPALRGEKPSNALLYGLTGTGKTAVARLVLRRLEARASSLGVLVKPIYVNARHRETPYRVASAIAEAVGVRVPFTGLSVGEVYERLVKRLSRLRGIYIIVLDEIDFLPKRPGGQDLLYRITRINQELGDRVWVSLVGITNSLGFVENLEPRVKSSLGEVELVFPPYTAPQLRDILETRAEEAFNPGVLDPDVVPLCAALAAREHGDARRALDLLRVAGEIAERRREERVRREHVYSARAEIERDRVSEVVRTLPLHAKLVLLSIMMLEDGGRPASTGEIYERYKELTSTLGLEHVTLRRVSGIISELDMLGIVKSRVVSRGRYGKTREVSLDADRLAVENALSEDPFVARLL”, the “soluble on expression in E. coli” value was “not soluble”.
For “MYPVDLHMHTVASTHAYSTLSDYIAQAKQKGIKLFAITDHGPDMEDAPHHWHFINMRIWPRVVDGVGILRGIEANIKNVDGEIDCSGKMFDSLDLIIAGFHEPVFAPHDKATNTQAMIATIASGNVHIISHPGNPKYEIDVKAVAEAAAKHQVALEINNSSFLHSRKGSEDNCREVAAAVRDAGGWVALGSDSHTAFTMGEFEECLKILDAVDFPPERILNVSPRRLLNFLESRGMAPIAEFADL”, the “soluble on expression in E. coli” value is on record as “soluble”.
The same measure for “MPQVETTSVFRADLLKEMESSTGTAPASTGAENLPAGSALLVVKRGPNAGARFLLDQPTTTAGRHPESDIFLDDVTVSRRHAEFRINEGEFEVVDVGSLNGTYVNREPRNAQVMQTGDEIQIGKFRLVFLAGPAELEHHHHHH”: “soluble”; for “MGNCNARPATFKPKNLPMEYPKKYAMYPTRRRMRASERRTYKRDCKNLLESVAGENPFEGDEETANNYTEAIFSISIKAKVLKTYMDLIESSINEECPVNGHIQLFCNEINNLSHLYEVFFRKSIVSVDTRVEERKEIARAAYRDIKNLTIIIYLNKERSKTLLQSVMMHTEFQTHQAEKLVEHYEATFSPILKEVLPDPNAPRIHRTPTRAQIIAFWEEVRREKESGTLGTPF”: “not soluble”.
